Source: paper PMC9170038, “Crowdsourced RNA design discovers diverse, reversible, efficient, self-contained molecular switches”

Key:
Conditions in all cases: chain copies: 2; label: tethered by stalled RNA polymerase
[1] = molecular target: T1, MS2 coat protein, dlFG mutant (Escherichia phage MS2, UniProt P03612, del68-81insG); assay: 4 mM Mg2+; no ligand; RNA-MaP array; 100 mM Tris-HCl pH 7.5, 80 mM KCl, 4 mM MgCl2, 0.1 mg/mL BSA, 1 mM DTT, 0.01 mg/mL yeast tRNA, 0.01% Tween-20; protein 1.5 nM to 3 uM; 37 C (Table S3)
[2] = molecular target: T1, MS2 coat protein, dlFG mutant; assay: 4 mM Mg2+; FMN 200 uM; RNA-MaP array; 100 mM Tris-HCl pH 7.5, 80 mM KCl, 4 mM MgCl2, 0.1 mg/mL BSA, 1 mM DTT, 0.01 mg/mL yeast tRNA, 0.01% Tween-20; protein 1.5 nM to 3 uM; 37 C (Table S3)
[3] = molecular target: T1, MS2 coat protein, dlFG mutant; assay: 4 mM Mg2+; theophylline 2 mM; RNA-MaP array; 100 mM Tris-HCl pH 7.5, 80 mM KCl, 4 mM MgCl2, 0.1 mg/mL BSA, 1 mM DTT, 0.01 mg/mL yeast tRNA, 0.01% Tween-20; protein 1.5 nM to 3 uM; 37 C (Table S3)
[4] = molecular target: T1, MS2 coat protein, dlFG mutant; assay: 4 mM Mg2+; L-tryptophan 2.4 mM; RNA-MaP array; 100 mM Tris-HCl pH 7.5, 80 mM KCl, 4 mM MgCl2, 0.1 mg/mL BSA, 1 mM DTT, 0.01 mg/mL yeast tRNA, 0.01% Tween-20; protein 1.5 nM to 3 uM; 37 C (Table S3)
[5] = molecular target: T1, MS2 coat protein, dlFG mutant; assay: 4 mM Mg2+; miR-208a RNA 100 nM (AU…UUGU); RNA-MaP array; 100 mM Tris-HCl pH 7.5, 80 mM KCl, 4 mM MgCl2, 0.1 mg/mL BSA, 1 mM DTT, 0.01 mg/mL yeast tRNA, 0.01% Tween-20; protein 1.5 nM to 3 uM; 37 C (Table S3)

B1: Eterna 5989868 (Exclusion 3) (ssRNA)
RNA: GUAUCACGAGGAUAUACAUGAGGAUCACCCAUGUAGAAGCCAUGUGGUGCUCAAGUAUGUAGAAGGCGUGCUCC
Kd [1]: 36.1 nM

B2: Eterna 7740311 (Same State - Theophylline A) (ssRNA)
RNA: AAAAUAAGCCAGUGAUGUUGGUAUACAGAUACCAGCGACGAAAGUCGCCCUUGGCAGCUGUGGACGUACAAAAUAAGUACGUCCU
Kd [1]: > 3000 nM

B3: Eterna 13730 (Sensor v3, turn-off variant 1) (ssRNA)
RNA: CCGAGGAAGCGGUCCUAUGACAUGAGGAUCACCCAUGUACCUCGCUACGAGCUUUUUGCUCGUCUUAUAAUUCUCGG
Kd [1]: 23.6 nM

B4: Eterna 15090 (Exclusion 6) (ssRNA)
RNA: AAAUGGGCGUAGGAUAUGAGAUGGUCUAGCAGCUCAGAAGGACGCACAUGAGGAUCACCCAUGUGAUCGGACUA
Kd [1]: 28.7 nM

B5: Eterna 6075609 (Exclusion 3) (ssRNA)
RNA: CUGAGUUAAGGAUAUACAUGAGGAUCACCCAUGUAAAGUAGCUUGCGUACAGGCAGAUGUAGAAGGUAAUUCGG
Kd [1]: 43 nM

B6: Eterna 10695 (Exclusion 1) (ssRNA)
RNA: AAUUCACAUGAGGAUCACCCAUGUCAGGAUAUGGUGACGCGGGUUUCGGUGCGUGUUGCCAGAAGGGACGGCUG
Kd [1]: 133 nM

B7: Eterna 6069320 (Exclusion 4) (ssRNA)
RNA: GGGUUGUGAGGAUAUUAGUUGUACGUCAAUAGACGUAUGGGUGAGAAGGCACAUGAGGAUCACCCAUGUUCCUG
Kd [1]: 107 nM

UUUCUUAUUCUUUAUUGUGGGGUUUU (ssRNA) [Eterna 4 (OligoAControl)]
Kd [1]: > 3000 nM

B8: Eterna 6458058 (Inverted Same State NG 2) (ssRNA)
RNA: AAUGGGCAGCAGAAGGCAUGUCUACGGACAUGAGGAUCACCCAUGUAGUAAAGCCGAAAGGCGCAUGAGGAUAUGCUGCCCUAA
Kd [1]: 121 nM

B9: Eterna 6455789 (Same State NG 2) (ssRNA)
RNA: UUGGACGUCGUAGGAUAUGUAGGAUAUUCCUACAUGAGGAUCACCCAUGUUGACAUGGAAGAAGGACAGAAGUACGAUGUCCAU
Kd [1]: 127 nM

B10: Eterna 6122145 (Exclusion NG 2) (ssRNA)
RNA: AAAUUUAACGAAGGAUAUGCUGACAUGAGGAUCACCCAUGUGUGCUUUGUGUUGCUGAAAUGGGAGCAGAAGGUCGUAUACAUA
Kd [1]: 118 nM

B11: Eterna 13277 (Sensor for hsa-mir-208a) (ssRNA)
RNA: AGUUGUGGGAAACUAUAGCAGACGCUCGUACAUGAGGAUCACCCAUGUCUUGUAGGAGCUGUUUGCUCGUUUUAUGG
Kd [1]: 63.8 nM

B12: Eterna 6455078 (Same State NG 2) (ssRNA)
RNA: UGGUACUAGGGAGGAUAUGGGAAGAUACAUGAGGAUCACCCAUGUUUAAGAAUGCCGAGAGGGAACUAGAAGGCCCUAGUACCU
Kd [1]: 255 nM

B13: Eterna 6446347 (Same State NG 2) (ssRNA)
RNA: GGGUACAUCGGAGGAUAUCAUGUAAAUACAUGAGGAUCACCCAUGUCGGUGGAGACAUCGGAGAUUGAGAAGGCCGAUGUACCG
Kd [1]: 271 nM

B14: Eterna 11543 (Sensor v3, turn-off variant 1) (ssRNA)
RNA: AAAGAAGAGAGAAAAUAACACAUGAGGAUCACCCAUGUGAGAAGUUGAGGGUGAUACAGGCUUUAUGCUCGUCUUAU
Kd [1]: 203 nM

B15: Eterna 6461246 (Same State NG 1) (ssRNA)
RNA: GUUUUCGCAUGAGGAUAUGCUCGCAUUUUAAGAGCAGAAGGUAUGUCUUUAGACAUGAGGAUCACCCAUGUAUUUAUCAUUGAA
Kd [1]: 162 nM

B16: Eterna 7717543 (Exclusion - Theophylline B) (ssRNA)
RNA: CCAUUCAUUUACGAUACCAGUCUAAUAUAUUUAAUCAAAACCCUCGCCGAGUGAUGUUCGGACCCUUGGCAGCGUCUGCGACAGG
Kd [1]: > 3000 nM

B17: Eterna 6146814 (Same State NG 1) (ssRNA)
RNA: GGUGUCGCAUGAGGAUAUGGUCAGCUUUGCUGACCAGAAGGCAUGUCAAUAGACAUGAGGAUCACCCAUGUAGUAAAGACACCA
Kd [1]: 504 nM

B18: Eterna 8603 (Same State 1) (ssRNA)
RNA: AUAAAACAUGAGGAUCACCCAUGUCAACAAAGUCGAGGAUAUGGGCAAAUAAAAUAAGAACCAGAAGGCGUAUAAU
Kd [1]: 530 nM

B19: Eterna 6402815 (Same State NG 2) (ssRNA)
RNA: ACCUCGUACACAGGAUAUGAUUACUUGCAGCCUGCGUUGACAUGAGGAUCACCCAUGUGGACUGAUCAGAAGGGUGAACGGAAG
Kd [1]: 571 nM

B20: Eterna 6045632 (Brourd's mod of Exclusion 4) (ssRNA)
RNA: CGGGCUGCUGUGAGGAUAUGCCUGUGGGUGCGUGGGUAGAAGGCACAUGAGGAUCACCCAUGUCCUGCAGCUCG
Kd [1]: 1130 nM

B21: Eterna 6461493 (Inverted Same State NG 1) (ssRNA)
RNA: GUGCUUUGGGAGAAGGCCGUAUGCAAAGCAUACGGAGGAUAUUCAUACCGGAAACGGACAUGAGGAUCACCCAUGUGGCACAAA
Kd [1]: 1200 nM

B22: Eterna 6122649 (Exclusion NG 2) (ssRNA)
RNA: UUAUCUUGUCAAGGAUAUGUUGUAUUGAUCUGAAAACAUGAGGAUCACCCAUGUAUACGGUGGGAACAGAAGGUGAAUGUAGAA
Kd [1]: 808 nM

B23: Eterna 7750603 (Exclusion - Arginine A) (ssRNA)
RNA: GGCCGCAAGGCGAGCGCUCCCACUCCGGAAGGAGCGCCCGUAAGGGCAGGUAGGUCGCCGGAGUGAUGUUCCGGUGGAGGGCUCG
Kd [1]: > 3000 nM

B24: Eterna 6430193 (Small Loop Exclusion NG 3) (ssRNA)
RNA: GUCGAAACCAUACUGGUCGACGGUCAGGAUAUACAUGAGGAUCACCCAUGUGCUAUUGAUACUAUGUAGAAGGGACCCACCGCA
Kd [2]: 24.4 nM

B25: Eterna 7618605 (Same State - Theophylline A) (ssRNA)
RNA: UGUAACAUGAGGAUCACCCAUGUGAGUGAUACCAGAUUAGUAUUAGUCCCUUGGCAGCACAUUGGGCGAGUGUAUAGUCUAUGCG
Kd [3]: 109 nM

B26: Eterna 7613251 (Exclusion - Tryptophan A) (ssRNA)
RNA: CGGACAUGAGGAUCACCCAUGUCGUCGACGCGAGGACCGGUACGGCCGCCACUCGCAUGCCAAUGAGCGCAUGCGGCCUGGGUAU
Kd [4]: 22.8 nM

B27: Eterna 7644049 (Same State - Tryptophan A) (ssRNA)
RNA: ACAUGAGGAUCACCCAUGUCAUGAGGUUCACGAGGACCGGUACGGCCGCCACUCGACAUGAGGGUCACCCGUGAACGGAACACCC
Kd [4]: 20 nM

B28: Eterna 12069 (Sensor v3, turn-off variant 1) (ssRNA)
RNA: UGUUGUUGUUUCCGUUCUUACAUGAGGAUCACCCAUGUUUCUUGUCGUGCUCGCGUUGCUCGUCAGACUACCUGUUG
Kd [5]: 111 nM

B29: Eterna 1618 (Same State - Theophylline A) (ssRNA)
RNA: GAUUGAGUGAUGUUCAAUUAGUAUCUAGAUACCAGAAUGUCUACCUUCCCUUGGCAGCUACUGACGGUGAUCAUUUCGCGCGCAG
Kd [1]: > 3000 nM

UUUGCAGGGCAGUGAUGUUGCCCUGCUUU (ssRNA) [Eterna 8 (K4-8bp_control)]
Kd [1]: > 3000 nM

B30: Eterna 7744734 (Exclusion - Tryptophan A) (ssRNA)
RNA: CGUGAAUGUCGUCAGUCAUCGGUCCAUGCACGAGGACCGGUACGGCCGCCACUCGAGCGUGGCAGUGAUGUUGCCAGCGCACUAA
Kd [1]: > 3000 nM

B31: Eterna 7689684 (Same State - Theophylline A) (ssRNA)
RNA: UGGAGUUGACGAAAAGUCAACUCCUGAGAUACCAGUGACGAAAGUCACCCUUGGCAGCUCACUGCCAGUGAUGUUGGAAAUAAAA
Kd [1]: > 3000 nM

B32: Eterna 1184 (Exclusion - Theophylline B) (ssRNA)
RNA: AACACCCGCUAUGAUACCAGUGAAGUGAUGUUUUACUCCGGGCGUAAGACAAAGGUCAGCCACCCUUGGCAGCAUAUCCGCGUAU
Kd [1]: > 3000 nM

B33: Eterna 7741560 (Exclusion - FMN A) (ssRNA)
RNA: UCCUAGGCUCGAAAGAGCCUAGGAUUGACUCAGGAUAUCCGGAAACGGAGAAGGGAGUCACUAGUGAUGUUAGGGAUUCCCUAUU
Kd [1]: > 3000 nM

B34: Eterna 7740449 (Exclusion - Theophylline A) (ssRNA)
RNA: AUGUUUUAUAAACUCAUGGUUUCGACAGAUACCAGCUUCGAGAGGAGCCCUUGGCAGCUGCAUGAGUGAUGUUCAUGUACGAAGA
Kd [1]: > 3000 nM

B35: Eterna 7763203 (Exclusion - FMN B) (ssRNA)
RNA: AAAUAACAGGCAGGAUAUGCUUAGUAAUAAGGCCAUAUAUACGUAUAGAGUGAUGUUUUGUACAAAGCAGAAGGGCUAAAUCCAU
Kd [1]: > 3000 nM
